Measurements: paper PMC11965285

Biological target: Lyn kinase (mouse (endogenous in mouse brain)) (UniProt P25911)
Experiment: pull-down

Sequence of UniProt P25911 (P25911 whole entry): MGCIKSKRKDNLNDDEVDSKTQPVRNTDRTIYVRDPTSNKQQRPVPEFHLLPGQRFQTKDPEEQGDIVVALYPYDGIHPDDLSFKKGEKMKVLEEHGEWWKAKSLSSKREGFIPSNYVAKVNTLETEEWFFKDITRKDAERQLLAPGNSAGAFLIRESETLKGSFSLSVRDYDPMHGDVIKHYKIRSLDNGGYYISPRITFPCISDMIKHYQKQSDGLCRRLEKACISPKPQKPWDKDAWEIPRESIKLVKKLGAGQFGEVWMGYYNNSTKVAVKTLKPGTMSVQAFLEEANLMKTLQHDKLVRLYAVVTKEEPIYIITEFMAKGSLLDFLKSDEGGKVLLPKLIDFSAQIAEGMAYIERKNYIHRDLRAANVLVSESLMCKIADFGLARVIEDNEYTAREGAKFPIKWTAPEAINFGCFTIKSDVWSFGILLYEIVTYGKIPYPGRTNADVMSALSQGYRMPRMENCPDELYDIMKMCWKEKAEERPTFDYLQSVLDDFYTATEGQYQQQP

IC50: 17.9 nM
Substance: TLR4-Lyn interacting modulator (TLIM) protein (domain or fragment)
